Like-named read-outs stand apart in the source and are kept apart here.
Legend:
pxAM-FLS-SSAS-TB-His [1] = target: T1, pxAM-FLS-SSAS-TB-His (SARS-CoV-2, UniProt P0DTC2 15-1213)
pxAM-FLS-SSAS-TB-His [2] = target: T1, pxAM-FLS-SSAS-TB-His; remark: listed apart in the source
pxAM-FLS-SSAS-TB-His [3] = target: T1, pxAM-FLS-SSAS-TB-His; remark: listed apart in the source
[4] = target: India, Delta, pxENB9-FLS-B.1.617.2 (SARS-CoV-2, UniProt P0DTC2 15-1213)
[5] = target: US/CA, Epsilon, pxENB9-FLS-B.1.427 (SARS-CoV-2, UniProt P0DTC2 15-1213)
[6] = target: Brazil, Gamma, pxENB9-FLS-P.1 (SARS-CoV-2, UniProt P0DTC2 15-1213)

B1: pxEBN4-ACE2-AAA-His (receptor)
chain: QSTIEEQAKTFLDKFNHEAEDLFYQSSLASWNYNTNITEENVQNMNNAGDKWSAFLKEQSTLAQMYPLQEIQNLTVKLQLQALQQNGSSVLSEDKSKRLNTILNTMSTIYSTGKVCNPDAPAECLLLEPGLNEIMANSLDYNERLWAWESWRSEVGKALRPLYEEYVVLKNEMARANHYEDYGDYWRGDYEVNGVDGYDYSRGQLIEDVEHTFEEIKPLYEHLHAYVRAKLMNAYPSYISPIGCLPAHLLGDMWGRFWTNLYSLTVPFGQKPNIDVTDAMVDQAWDAQRIFKEAEKFFVSVGLPNMTQGFWENSMLTDPGNVQKAVCHPTAWDLGKGDFRILMCTKVTMDDFLTAHHEMGHIQYDMAYAAQPFLLRNGANEGFHEAVGEIMSLSAATPKHLKSIGLLSPDFQEDNETEINFLLKQALTIVGTLPFTYMLEKWRWMVFKGEIPKDQWMKKWWEMKREIVGVVEPVPHDETYCDPASLFHVSNDYSFIRYYTRTLYQFQFQEALCQAAKHEGPLHKCDISNSTEAGQKLFNMLRLGKSEPWTLALENVVGAKNMNVRPLLNYFEPLFTWLKDQNKNSFVGWSTDWSPYADGGGSHHHHHHHH
- Kd (pxAM-FLS-SSAS-TB-His [1]): 0.13 nM
- Kd (pxAM-FLS-SSAS-TB-His [2]): 0.524 nM
- Kd (pxAM-FLS-SSAS-TB-His [3]): 5.62 nM
- Kd [4]: 2.55 nM
- Kd [5]: 1.3 nM
- Kd [6]: 0.00159 nM
